In article PMC9188544, “Mechanism of glycogen synthase inactivation and interaction with glycogenin” (Nature Communications, 2022):
Residue numbers refer to the chain shown, from its start. Numbers in names are those of the source. One block for each binder: values may come before it.

Legend:
[1] = molecular target: the molecule itself; test: cryo-EM structure; purified GS-GN (WT) complex at 0.36 mg/mL (2.97 μM), 8% glycerol; map at 6.0 Å
[2] = molecular target: T1, human glycogenin 1 (GN1) Y195F, full length, non-glucosylated (human, UniProt P46976-2 1-333, Y195F); test: mass photometry; purified co-expressed complex diluted to 50 nM in 25 mM HEPES pH 7.5, 150 mM NaCl, 1 mM TCEP; Refyn OneMP, 60 s movies; details: both partners purified
T1 construct: glycogenin 1, human, encoded by GYG1, cDNA NM 001184720, full length; expected ~37.5 kDa; the C-terminal GN34 region is modelled as residues 300-332, which fits the 333-residue isoform; Cloned in pFL (with untagged GS) and in pFastBac (co-infected with His6-TEV-GS WT or mutants); Both carry an N-terminal His6 tag and a cleavable site, so they are treated as one molecule; also called GN(Y195F); GN …
T1 sequence (looked up): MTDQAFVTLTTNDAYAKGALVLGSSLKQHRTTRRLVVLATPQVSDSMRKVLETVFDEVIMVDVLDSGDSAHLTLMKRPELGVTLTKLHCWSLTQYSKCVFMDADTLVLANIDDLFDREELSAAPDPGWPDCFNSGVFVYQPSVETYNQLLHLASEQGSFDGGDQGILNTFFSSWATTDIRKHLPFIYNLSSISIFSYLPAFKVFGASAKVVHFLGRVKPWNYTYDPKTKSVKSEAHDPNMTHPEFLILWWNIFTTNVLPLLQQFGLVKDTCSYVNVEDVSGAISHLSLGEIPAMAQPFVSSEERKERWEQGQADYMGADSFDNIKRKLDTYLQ

[3] = molecular target: T2, human glycogenin 1 (GN1), full length, wild type, glucosylated (human, UniProt P46976-2 1-333, auto-glucosylated at tyrosine 195 (heterogeneous glucose chains; smear on SDS-PAGE, PAS positive)); test: negative-stain electron microscopy; purified co-expressed complex at 0.01-0.02 mg/mL in 25 mM HEPES pH 7.5, 150 mM NaCl, 1 mM TCEP, 10% glycerol; uranyl acetate stain; 2D classes and 3D map (C1, ~22 Å); details: both partners purified
T2 construct: glycogenin 1, human, encoded by GYG1, cDNA NM 001184720, full length; expected ~37.5 kDa; the C-terminal GN34 region is modelled as residues 300-332, which fits the 333-residue isoform; The isoform is inferred from the printed transcript id, the ~37.5 kDa size and the GN34 numbering; also called GN WT; HsGN; not shown: His6, N-terminal, cleaved
T2 sequence (looked up): T1 sequence (looked up) with F195Y

[4] = molecular target: the molecule itself; test: mass photometry; purified co-expressed complex diluted to 50 nM in 25 mM HEPES pH 7.5, 150 mM NaCl, 1 mM TCEP; Refyn OneMP, 60 s movies
[5] = molecular target: T3, human glycogenin 1 (GN1), full length, wild type, glucosylated (human), P46976; test: negative-stain electron microscopy; purified co-expressed complex at 0.01-0.02 mg/mL in 25 mM HEPES pH 7.5, 150 mM NaCl, 1 mM TCEP, 10% glycerol; uranyl acetate stain; 2D classes and 3D map (C1, ~22 Å); details: remark: other sources report otherwise
T3 chain: T1 sequence (looked up) with F195Y

stoichiometry N [2]: 1 GS per GN (4:4)
stoichiometry N [3]: 1 GS per GN (4:4)
B1: human glycogen synthase 1 (GS1), full length, phosphorylated, co-expressed with GN1 from the pFL vector (enzyme, UniProt P13807 1-737, looked up)
chain: MPLNRTLSMSSLPGLEDWEDEFDLENAVLFEVAWEVANKVGGIYTVLQTKAKVTGDEWGDNYFLVGPYTEQGVRTQVELLEAPTPALKRTLDSMNSKGCKVYFGRWLIEGGPLVVLLDVGASAWALERWKGELWDTCNIGVPWYDREANDAVLFGFLTTWFLGEFLAQSEEKPHVVAHFHEWLAGVGLCLCRARRLPVATIFTTHATLLGRYLCAGAVDFYNNLENFNVDKEAGERQIYHRYCMERAAAHCAHVFTTVSQITAIEAQHLLKRKPDIVTPNGLNVKKFSAMHEFQNLHAQSKARIQEFVRGHFYGHLDFNLDKTLYFFIAGRYEFSNKGADVFLEALARLNYLLRVNGSEQTVVAFFIMPARTNNFNVETLKGQAVRKQLWDTANTVKEKFGRKLYESLLVGSLPDMNKMLDKEDFTMMKRAIFATQRQSFPPVCTHNMLDDSSDPILTTIRRIGLFNSSADRVKVIFHPEFLSSTSPLLPVDYEEFVRGCHLGVFPSYYEPWGYTPAECTVMGIPSISTNLSGFGCFMEEHIADPSAYGIYILDRRFRSLDDSCSQLTSFLYSFCQQSRRQRIIQRNRTERLSDLLDWKYLGRYYMSARHMALSKAFPEHFTYEPNEADAAQGYRYPRPASVPPSPSLSRHSSPHQSEDEEDPRNGPLEEDGERYDEDEEAAKDRRNIRAPEWPRRASCTSSTSGSKRNSVDTATSSSLSTPSEPLSPTSSLGEERN
modifications: phosphoserine mapped by MS/MS at S8, S412, S641, S645, S652, S653, S657, S727, S731; phospho-S641 modelled in the cryo-EM map
notes: glycogen synthase 1 (muscle), human, encoded by GYS1, cDNA NM 002103, full length; In the pFL construct only GN carries the His tag; also called HsGS; GS WT
stoichiometry N [1]: 4

B2: human glycogen synthase 1 (GS1) H610E (enzyme, UniProt P13807 1-737, looked up)
chain: B1 chain with H610E
modifications: phosphorylation at S8, S641 and S641/S645 probed by immunoblot (Fig. 4b)
notes: glycogen synthase 1 (muscle), human, encoded by GYS1, cDNA NM 002103; also called GS H610E; not shown: His6, N-terminal, cleaved
binding result [4]: binds

B3: human glycogen synthase 1 (GS1) W18A (enzyme, UniProt P13807 1-737, looked up)
chain: B1 chain with W18A
modifications: phosphorylation at S8, S641 and S641/S645 probed by immunoblot (Fig. 4b)
notes: glycogen synthase 1 (muscle), human, encoded by GYS1, cDNA NM 002103; also called GS W18A; not shown: His6, N-terminal, cleaved
binding result [4]: binds

B4: human glycogen synthase 1 (GS1) Y600A (enzyme, UniProt P13807 1-737, looked up)
chain: B1 chain with Y600A
modifications: phosphorylation at S8, S641 and S641/S645 probed by immunoblot (Fig. 4b)
notes: glycogen synthase 1 (muscle), human, encoded by GYS1, cDNA NM 002103; also called GS Y600A; not shown: His6, N-terminal, cleaved
binding result [4]: binds

B5: human glycogen synthase 1 (GS1) R603A (enzyme, UniProt P13807 1-737, looked up)
chain: B1 chain with R603A
modifications: phosphorylation at S8, S641 and S641/S645 probed by immunoblot (Fig. 4b)
notes: glycogen synthase 1 (muscle), human, encoded by GYS1, cDNA NM 002103; also called GS R603A; not shown: His6, N-terminal, cleaved
binding result [4]: binds

stoichiometry N [5]: 2
B6: human glycogenin 1 (GN1), full length, wild type, glucosylated, P46976-2 1-333 (enzyme)
chain: T1 sequence (looked up) with F195Y
modifications: here or on the partner: auto-glucosylated at tyrosine 195 (heterogeneous glucose chains; smear on SDS-PAGE, PAS positive); auto-glucosylated at tyrosine 195 (heterogeneous glucose chains; smear on SDS-PAGE, PAS positive)
